Data taken from the supplement of paper PMC7125110.
± gives the standard error. This sample holds only a part of the variants without activity.

B1: glmS ribozyme (parent)
chain: AUAAAAGCGCCAGAACUACAGAAAUGUAGUUGACGAGGAGGAGGUUUAUCGAAUUUUCGGCGGAUGCCUCCAAA

Key:
Conditions in all cases: with glucosamine-6-phosphate
glucosamine-6-phosphate [1] = variants of: B1; assay: self-cleavage kobs at 40 uM GlcN6P; higher = faster cleavage; RNA array
Procedure, shortened: (§1)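 Glucosamine-6-phosphate, from 40 μM to 10 mM in HEPES/KCl/Mg(OAc)2 buffer, was flowed over sequenced MiSeq chips carrying barcoded ribozyme variants transcribed in situ by E. coli RNA polymerase. A hybridised Cy3 probe tracked the variants at 37 °C as tiles were imaged over ~14 h. kobs, kcat and KM were obtained by fitting normalised per-tile medians to exponential decays and then applying weighted Michaelis–Menten fits across concentrations.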

glucosamine-6-phosphate [2] = variants of: B1; assay: self-cleavage kobs at 640 uM GlcN6P; higher = faster cleavage; RNA array
Procedure, shortened: as §1

glucosamine-6-phosphate [3] = variants of: B1; assay: self-cleavage kobs at 2500 uM GlcN6P; higher = faster cleavage; RNA array
Procedure, shortened: as §1

glucosamine-6-phosphate [4] = variants of: B1; assay: self-cleavage kobs at 10000 uM GlcN6P; higher = faster cleavage; RNA array
Procedure, shortened: as §1

glucosamine-6-phosphate [5] = variants of: B1; assay: self-cleavage kobs at 160 uM GlcN6P; higher = faster cleavage; RNA array
Procedure, shortened: as §1

Variant	self-cleavage kobs at 40 uM GlcN6P (glucosamine-6-phosphate [1])	self-cleavage kobs at 640 uM GlcN6P (glucosamine-6-phosphate [2])	self-cleavage kobs at 2500 uM GlcN6P (glucosamine-6-phosphate [3])	self-cleavage kobs at 10000 uM GlcN6P (glucosamine-6-phosphate [4])	self-cleavage kobs at 160 uM GlcN6P (glucosamine-6-phosphate [5])
G7C C16G C61A	< 1e-05 s⁻¹	< 1e-05 s⁻¹	< 1e-05 s⁻¹	< 1e-05 s⁻¹	
C50A G63U	< 1e-05 s⁻¹	< 1e-05 s⁻¹		< 1e-05 s⁻¹	< 1e-05 s⁻¹
C11G G41A	< 1e-05 s⁻¹	< 1e-05 s⁻¹	< 1e-05 s⁻¹	< 1e-05 s⁻¹	
C8A U45A	< 1e-05 s⁻¹	< 1e-05 s⁻¹	< 1e-05 s⁻¹	< 1e-05 s⁻¹	< 1e-05 s⁻¹
G41A G62U	< 1e-05 s⁻¹	< 1e-05 s⁻¹		< 1e-05 s⁻¹	< 1e-05 s⁻¹
C10U A52U U65A	< 1e-05 s⁻¹	< 1e-05 s⁻¹	< 1e-05 s⁻¹	< 1e-05 s⁻¹	
G7C C10A A52C	< 1e-05 s⁻¹			< 1e-05 s⁻¹	
A42G U69C C71A	0.000273 ± 0.00013 s⁻¹		0.00647 ± 0.0028 s⁻¹		
G7C C11A	< 1e-05 s⁻¹	< 1e-05 s⁻¹		< 1e-05 s⁻¹	< 1e-05 s⁻¹
A36U G44U	< 1e-05 s⁻¹	< 1e-05 s⁻¹	< 1e-05 s⁻¹	< 1e-05 s⁻¹	< 1e-05 s⁻¹
G35U G40C	< 1e-05 s⁻¹	< 1e-05 s⁻¹	< 1e-05 s⁻¹	< 1e-05 s⁻¹	< 1e-05 s⁻¹
U31A C71U	0.000386 ± 3.4e-05 s⁻¹	0.00393 ± 0.00052 s⁻¹	0.00846 ± 0.0018 s⁻¹	0.0362 ± 0.0056 s⁻¹	0.000552 ± 0.0001 s⁻¹
C8U C34U	< 1e-05 s⁻¹	< 1e-05 s⁻¹		< 1e-05 s⁻¹	
A6C U31C	< 1e-05 s⁻¹				< 1e-05 s⁻¹
G43A A64U	< 1e-05 s⁻¹	< 1e-05 s⁻¹	< 1e-05 s⁻¹	< 1e-05 s⁻¹	< 1e-05 s⁻¹
U56G G62A	< 1e-05 s⁻¹		< 1e-05 s⁻¹	< 1e-05 s⁻¹	
A15G G29A U55G	5.71e-05 ± 1.7e-05 s⁻¹			0.00317 ± 0.00043 s⁻¹	
C8U G43U	< 1e-05 s⁻¹		< 1e-05 s⁻¹	< 1e-05 s⁻¹	< 1e-05 s⁻¹
G21C G29A	6.68e-05 ± 2.4e-05 s⁻¹			0.00366 ± 0.00094 s⁻¹	
G13U U45C	< 1e-05 s⁻¹			6.21e-05 ± 1.4e-05 s⁻¹	< 1e-05 s⁻¹

Variant	self-cleavage kobs at 40 uM GlcN6P (glucosamine-6-phosphate [1])	self-cleavage kobs at 640 uM GlcN6P (glucosamine-6-phosphate [2])	self-cleavage kobs at 2500 uM GlcN6P (glucosamine-6-phosphate [3])	self-cleavage kobs at 10000 uM GlcN6P (glucosamine-6-phosphate [4])	self-cleavage kobs at 160 uM GlcN6P (glucosamine-6-phosphate [5])
C34G G44C	< 1e-05 s⁻¹	< 1e-05 s⁻¹	< 1e-05 s⁻¹	< 1e-05 s⁻¹	
G41A C67U U69A	< 1e-05 s⁻¹				
C34G C50A A53G	< 1e-05 s⁻¹				
A36U C58U	< 1e-05 s⁻¹	< 1e-05 s⁻¹	< 1e-05 s⁻¹	< 1e-05 s⁻¹	
G9A C10G	< 1e-05 s⁻¹		< 1e-05 s⁻¹		< 1e-05 s⁻¹
U31G A42C	< 1e-05 s⁻¹		< 1e-05 s⁻¹		< 1e-05 s⁻¹
G7C C68A	< 1e-05 s⁻¹		< 1e-05 s⁻¹	< 1e-05 s⁻¹	< 1e-05 s⁻¹
A39U G60C	< 1e-05 s⁻¹		< 1e-05 s⁻¹	< 1e-05 s⁻¹	< 1e-05 s⁻¹
C8G G13U G21A U30A	< 1e-05 s⁻¹			< 1e-05 s⁻¹	
G41U G44A	< 1e-05 s⁻¹	< 1e-05 s⁻¹	< 1e-05 s⁻¹	< 1e-05 s⁻¹	< 1e-05 s⁻¹
A14C A15U U56G	0.000225 ± 6.3e-05 s⁻¹	0.00145 ± 0.00027 s⁻¹	0.00238 ± 0.00057 s⁻¹	0.00809 ± 0.0027 s⁻¹	
C34U G38C C67U	< 1e-05 s⁻¹			< 1e-05 s⁻¹	
G13C U31A G51A	< 1e-05 s⁻¹				
U47A U55A	0.000618 ± 0.00013 s⁻¹	0.00544 ± 0.0015 s⁻¹	0.00615 ± 0.0017 s⁻¹	0.0432 ± 0.015 s⁻¹	0.00147 ± 0.00021 s⁻¹
G63A A64U	< 1e-05 s⁻¹	< 1e-05 s⁻¹	< 1e-05 s⁻¹	< 1e-05 s⁻¹	
A12U G13A U47C A53G	< 1e-05 s⁻¹				
G60U G63A	< 1e-05 s⁻¹				< 1e-05 s⁻¹
G44C G60A U69G	< 1e-05 s⁻¹				
U56G U69C	0.000126 ± 1.8e-05 s⁻¹	0.000627 ± 0.00011 s⁻¹	0.00118 ± 0.00041 s⁻¹	0.00475 ± 0.0011 s⁻¹	0.000192 ± 6.9e-05 s⁻¹
C11G U30C U31G	< 1e-05 s⁻¹				
